Experimental data taken from PMC7004355 (PLoS ONE, 2020).

What was measured:
[1] = biological target: the molecule itself; experiment: SEC-SAXS; in-line SEC-SAXS on a Superdex 200 5/150 GL column; enzyme at 4.3-5.5 mg/mL; apo state, and after incubation with 5 mM CP or 10 mM ORN; self-association of the enzyme (trimer)
purified protein [2] = substrate: NCCC[C@H](N)C(=O)O; experiment: purified protein; conditions: 50 mM Tris pH 8.5, 20 °C, 20 mM NaCl, carbamoyl phosphate 5 mM
purified protein [3] = substrate: NC(=O)OP(=O)(O)O; experiment: purified protein; assay type: biochemical, Escherichia coli; conditions: 50 mM Tris pH 8.5, 20 °C, 20 mM NaCl, ornithine 3 mM

B1: Escherichia coli ornithine transcarbamoylase (OTC) variant D231A, His-tagged (enzyme, E. coli)
chain: SGFYHKHFLKLLDFTPAELNSLLQLAAKLKADKKSGKEEAKLTGKNIALIFEKDSTRTRCSFEVAAYDQGARVTYLGPSGSQIGHKESIKDTARVLGRMYDGIQYRGYGQEIVETLAEYASVPVWNGLTNEFHPTQLLADLLTMQEHLPGKAFNEMTLVYAGDARNNMGNSMLEAAALTGLDLRLVAPQACWPEAALVTECRALAQQNGGNITLTEDVAKGVEGADFIYTAVWVSMGEAKEKWAERIALLREYQVNSKMMQLTGNPEVKFLHCLPAFHDDQTTLGKKMAEEFGLHGGMEVTDEVFESAASIVFDQAENRMHTIKAVMVATLSK
notes: Anabolic ornithine transcarbamoylase of E. coli, argI gene, 333-residue subunit; Made by site-directed mutagenesis of the ASKA pCA24N plasmid; 6x-His tag not cleaved; source: E. coli BL21 (DE3) Tuner, purified (HisTrap FF, Superdex 200 SEC)
binding result [1]: binds
Km (purified protein [2]): 590 ± 330 µM
kcat (purified protein [2]): 0.7 s⁻¹
kcat/Km (purified protein [2]): 1400 M⁻¹ s⁻¹
Km (purified protein [3]): 150 ± 42 µM
kcat (purified protein [3]): 0.48 ± 0.1 s⁻¹
kcat/Km (purified protein [3]): 3400 ± 1300 M⁻¹ s⁻¹

B2: Escherichia coli ornithine transcarbamoylase (OTC) variant Y160S, His-tagged (enzyme, E. coli)
chain: SGFYHKHFLKLLDFTPAELNSLLQLAAKLKADKKSGKEEAKLTGKNIALIFEKDSTRTRCSFEVAAYDQGARVTYLGPSGSQIGHKESIKDTARVLGRMYDGIQYRGYGQEIVETLAEYASVPVWNGLTNEFHPTQLLADLLTMQEHLPGKAFNEMTLVSAGDARNNMGNSMLEAAALTGLDLRLVAPQACWPEAALVTECRALAQQNGGNITLTEDVAKGVEGADFIYTDVWVSMGEAKEKWAERIALLREYQVNSKMMQLTGNPEVKFLHCLPAFHDDQTTLGKKMAEEFGLHGGMEVTDEVFESAASIVFDQAENRMHTIKAVMVATLSK
notes: as for B1
binding result [1]: binds
Km (purified protein [2]): 7300 ± 2000 µM
kcat (purified protein [2]): 410 s⁻¹
kcat/Km (purified protein [2]): 61000 M⁻¹ s⁻¹

B3: Escherichia coli ornithine transcarbamoylase (OTC) variant S61A, His-tagged (enzyme, E. coli)
chain: SGFYHKHFLKLLDFTPAELNSLLQLAAKLKADKKSGKEEAKLTGKNIALIFEKDSTRTRCAFEVAAYDQGARVTYLGPSGSQIGHKESIKDTARVLGRMYDGIQYRGYGQEIVETLAEYASVPVWNGLTNEFHPTQLLADLLTMQEHLPGKAFNEMTLVYAGDARNNMGNSMLEAAALTGLDLRLVAPQACWPEAALVTECRALAQQNGGNITLTEDVAKGVEGADFIYTDVWVSMGEAKEKWAERIALLREYQVNSKMMQLTGNPEVKFLHCLPAFHDDQTTLGKKMAEEFGLHGGMEVTDEVFESAASIVFDQAENRMHTIKAVMVATLSK
notes: Anabolic ornithine transcarbamoylase of E. coli, argI gene, 333-residue subunit; Made by site-directed mutagenesis of the ASKA pCA24N plasmid; 6x-His tag not cleaved; also called negative control; source: E. coli BL21 (DE3) Tuner, purified (HisTrap FF, Superdex 200 SEC)
binding result [1]: binds

B4: Escherichia coli ornithine transcarbamoylase (OTC) variant Q104L, His-tagged (enzyme, E. coli)
chain: SGFYHKHFLKLLDFTPAELNSLLQLAAKLKADKKSGKEEAKLTGKNIALIFEKDSTRTRCSFEVAAYDQGARVTYLGPSGSQIGHKESIKDTARVLGRMYDGILYRGYGQEIVETLAEYASVPVWNGLTNEFHPTQLLADLLTMQEHLPGKAFNEMTLVYAGDARNNMGNSMLEAAALTGLDLRLVAPQACWPEAALVTECRALAQQNGGNITLTEDVAKGVEGADFIYTDVWVSMGEAKEKWAERIALLREYQVNSKMMQLTGNPEVKFLHCLPAFHDDQTTLGKKMAEEFGLHGGMEVTDEVFESAASIVFDQAENRMHTIKAVMVATLSK
notes: as for B3
binding result [1]: binds

B5: Escherichia coli ornithine transcarbamoylase (OTC) variant Y160F, His-tagged (enzyme, E. coli)
chain: SGFYHKHFLKLLDFTPAELNSLLQLAAKLKADKKSGKEEAKLTGKNIALIFEKDSTRTRCSFEVAAYDQGARVTYLGPSGSQIGHKESIKDTARVLGRMYDGIQYRGYGQEIVETLAEYASVPVWNGLTNEFHPTQLLADLLTMQEHLPGKAFNEMTLVFAGDARNNMGNSMLEAAALTGLDLRLVAPQACWPEAALVTECRALAQQNGGNITLTEDVAKGVEGADFIYTDVWVSMGEAKEKWAERIALLREYQVNSKMMQLTGNPEVKFLHCLPAFHDDQTTLGKKMAEEFGLHGGMEVTDEVFESAASIVFDQAENRMHTIKAVMVATLSK
notes: as for B1
binding result [1]: binds

B6: Escherichia coli ornithine transcarbamoylase (OTC) variant Y229F, His-tagged (enzyme, E. coli)
chain: SGFYHKHFLKLLDFTPAELNSLLQLAAKLKADKKSGKEEAKLTGKNIALIFEKDSTRTRCSFEVAAYDQGARVTYLGPSGSQIGHKESIKDTARVLGRMYDGIQYRGYGQEIVETLAEYASVPVWNGLTNEFHPTQLLADLLTMQEHLPGKAFNEMTLVYAGDARNNMGNSMLEAAALTGLDLRLVAPQACWPEAALVTECRALAQQNGGNITLTEDVAKGVEGADFIFTDVWVSMGEAKEKWAERIALLREYQVNSKMMQLTGNPEVKFLHCLPAFHDDQTTLGKKMAEEFGLHGGMEVTDEVFESAASIVFDQAENRMHTIKAVMVATLSK
notes: as for B1
binding result [1]: binds

B7: Escherichia coli ornithine transcarbamoylase (OTC) variant Y229S, His-tagged (enzyme, E. coli)
chain: SGFYHKHFLKLLDFTPAELNSLLQLAAKLKADKKSGKEEAKLTGKNIALIFEKDSTRTRCSFEVAAYDQGARVTYLGPSGSQIGHKESIKDTARVLGRMYDGIQYRGYGQEIVETLAEYASVPVWNGLTNEFHPTQLLADLLTMQEHLPGKAFNEMTLVYAGDARNNMGNSMLEAAALTGLDLRLVAPQACWPEAALVTECRALAQQNGGNITLTEDVAKGVEGADFISTDVWVSMGEAKEKWAERIALLREYQVNSKMMQLTGNPEVKFLHCLPAFHDDQTTLGKKMAEEFGLHGGMEVTDEVFESAASIVFDQAENRMHTIKAVMVATLSK
notes: as for B1
binding result [1]: binds
